{"source": "patent US9745357B2", "about": "“Peptides used for treating cancers and, in particular, chronic lymphoid leukaemia” (Centre National de la Recherche Scientifique, priority 2009, dated 2017)", "target": "T1, eIF4E (Mus musculus, UniProt P63073)", "T1 construct": "made in house; host or cells: E. coli BL21DE3 (Novagen), pGEX-4T-1 vector", "T1 sequence (P63073 whole entry, the tested form may be a part)": "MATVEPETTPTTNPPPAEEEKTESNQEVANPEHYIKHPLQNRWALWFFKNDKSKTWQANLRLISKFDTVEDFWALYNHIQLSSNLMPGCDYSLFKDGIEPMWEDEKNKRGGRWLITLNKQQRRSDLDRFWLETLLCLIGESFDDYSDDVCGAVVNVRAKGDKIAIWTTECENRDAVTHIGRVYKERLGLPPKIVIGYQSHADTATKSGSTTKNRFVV", "experiment": "Test for interaction of YFP-fused peptide sequences with eIF4E (GST-eIF4E beads, affinity chromatography)", "assay_type": "binding", "settings": "35S Met-labeled YFP fusion produced in rabbit reticulocyte lysate; SDS-PAGE, autoradiography; FIG. 1", "excerpt": "The eIF4E protein fused to glutathione-S-transferase (GST-eIF4E) or GST alone (GST), used as a control, are produced in bacteria, purified and immobilized on glutathione beads. The YFP, YFP-A1 WT and YFP-A1 YALA proteins were produced in rabbit reticulocyte lysate in the presence of 35S methionine and chromatographed on the GST-eIF4 or GST beads. The proteins retained on the beads are eluted and analyzed by SDS-PAGE followed by autoradiography.\nThe plasmids encoding the YFP protein-peptides were obtained by amplification of the reading frame of the YFP protein (enhanced yellow-green variant of the Aequorea victoria green fluorescent protein) from the pEYFP-C1 plasmid (Clontech). The 5′ primer used (sequence described below) made it possible to insert a T7 promoter (underlined sequence) upstream of the reading frame of YFP. […] The pGEX 4E plasmid was obtained by inserting the reading frame of the mouse eIF4E protein at the BamHI/EcoRI sites of the PGEX-4T-1 vector (Amersham pharmacia biotech). […] After washing, the proteins were eluted with SDS loading buffer, and analyzed, after an SDS-PAGE gel, by autoradiography (Typhoon Phospholmager, Amersham Pharmacia Biotech).\nBiochemical validation of the peptides identified was then carried out by means of affinity chromatography approaches. […] The ability of these peptides to interact with eIF4E was then analyzed by affinity chromatography. […]", "note": "“Also recorded” adds a separate entry of the source. No end group written: not given here."}
{"substance": "YFP-A1 WT: YFP, yellow fluorescent protein, fused to a peptide derived from the human Angel 1 protein, of sequence RRKYGRDFLLRF (SEQ ID No. 3) (also: fused to YFP)", "values": [{"measurement": "interaction with eIF4E (retention on GST-eIF4E beads)", "result": "associates more strongly with eIF4E than the other peptides tested; also recorded: is retained on GST-eIF4E beads"}]}
